T1: EcAIII α subunit (∼20 kDa) (Escherichia coli, UniProt P37595 1-178)
T1 construct: EcAIII of Escherichia coli, α subunit: cut product of the precursor up to the scissile bond Gly178-Thr179; the linker is partly degraded, residues 158-178 are not visible in the structures; also called subunit α; source: E. coli BL21 Gold, purified (DEAE-Sepharose, SEC); formed by autocleavage of the precursor
T1 sequence (looked up): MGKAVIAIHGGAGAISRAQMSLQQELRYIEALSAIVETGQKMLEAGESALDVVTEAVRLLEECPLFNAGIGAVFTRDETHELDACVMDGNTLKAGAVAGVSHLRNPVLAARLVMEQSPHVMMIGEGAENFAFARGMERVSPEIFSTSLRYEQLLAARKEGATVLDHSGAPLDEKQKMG

B1: EcAIII β subunit of variant RDM1-3 (domain or fragment, Escherichia coli, UniProt P37595 179-321, looked up)
chain: TVGAVALDLDGNLAAATSTGGMTNKLPHTVGPQPLVGAGCYANNASVAVSCTGTGEVFIRALAAYDIAALMDYGGLSLAEACERVVMEKLPALGGSGGLIAIDHEGNVALPFNTEGMYRAWGYAGDTPTTGIYREKGDTVATQ
notes: EcAIII of Escherichia coli, β subunit beginning at Thr179, with the substitutions of RDM1-3; also called RDM1-3 β subunit; source: E. coli BL21 Gold, purified (DEAE-Sepharose, SEC); formed by autocleavage of the precursor
B2: wild-type EcAIII, mature (αβ)2 heterotetramer (class 2 L-asparaginase of Escherichia coli) (complex)
chain 1: MGKAVIAIHGGAGAISRAQMSLQQELRYIEALSAIVETGQKMLEAGESALDVVTEAVRLLEECPLFNAGIGAVFTRDETHELDACVMDGNTLKAGAVAGVSHLRNPVLAARLVMEQSPHVMMIGEGAENFAFARGMERVSPEIFSTSLRYEQLLAARKEGATVLDHSGAPLDEKQKMG
chain 2: TVGAVALDLDGNLAAATSTGGMTNKLPGRVGDSPLVGAGCYANNASVAVSCTGTGEVFIRALAAYDIAALMDYGGLSLAEACERVVMEKLPALGGSGGLIAIDHEGNVALPFNTEGMYRAWGYAGDTPTTGIYREKGDTVATQ
notes: EcAIII of Escherichia coli, α subunit: cut product of the precursor up to the scissile bond Gly178-Thr179; the linker is partly degraded, residues 158-178 are not visible in the structures; EcAIII of Escherichia coli, β subunit: cut product of the precursor beginning at the nucleophilic Thr179; Gene in pET-11d; no tag is mentioned; Dimer of two αβ heterodimers formed by autocleavage of the …
B3: EcAIII variant RDM1-38, mature (processed into α/β subunits) (complex, Escherichia coli)
chain 1: MGKAVIAIHGGAGAISRAQMSLQQELRYIEALSAIVETGQKMLEAGESALDVVTEAVRLLEECPLFNAGIGAVFTRDETHELDACVMDGNTLKAGAVAGVSHLRNPVLAARLVMEQSPHVMMIGEGAENFAFARGMERVSPEIFSTSLRYEQLLAARKEGATVLDHSGAPLDEKQKMG
chain 2: TVGAVALDLDGNLAAATSTGGMTNKLPGCVGSVPLVGAGCYANNASVAVSCTGTGEVFIRALAAYDIAALMDYGGLSLAEACERVVMEKLPALGGSGGLIAIDHEGNVALPFNTEGMYRAWGYAGDTPTTGIYREKGDTVATQ
notes: EcAIII of Escherichia coli, α subunit: cut product up to the scissile bond Gly178-Thr179; residues 158-178 not visible in the structure; EcAIII of Escherichia coli, β subunit beginning at Thr179, with the substitutions of RDM1-38; source: E. coli BL21 Gold, purified (DEAE-Sepharose, SEC); copies: 2 + 2
B4: EcAIII variant RDM1-3, mature (processed into α/β subunits) (complex, Escherichia coli)
chain 1: MGKAVIAIHGGAGAISRAQMSLQQELRYIEALSAIVETGQKMLEAGESALDVVTEAVRLLEECPLFNAGIGAVFTRDETHELDACVMDGNTLKAGAVAGVSHLRNPVLAARLVMEQSPHVMMIGEGAENFAFARGMERVSPEIFSTSLRYEQLLAARKEGATVLDHSGAPLDEKQKMG
chain 2: TVGAVALDLDGNLAAATSTGGMTNKLPHTVGPQPLVGAGCYANNASVAVSCTGTGEVFIRALAAYDIAALMDYGGLSLAEACERVVMEKLPALGGSGGLIAIDHEGNVALPFNTEGMYRAWGYAGDTPTTGIYREKGDTVATQ
notes: EcAIII of Escherichia coli, α subunit: cut product up to the scissile bond Gly178-Thr179; residues 158-178 not visible in the structure; EcAIII of Escherichia coli, β subunit beginning at Thr179, with the substitutions of RDM1-3; source: E. coli BL21 Gold, purified (DEAE-Sepharose, SEC); copies: 2 + 2
B5: EcAIII variant RDM1-12, mature (processed into α/β subunits) (complex, Escherichia coli)
chain 1: MGKAVIAIHGGAGAISRAQMSLQQELRYIEALSAIVETGQKMLEAGESALDVVTEAVRLLEECPLFNAGIGAVFTRDETHELDACVMDGNTLKAGAVAGVSHLRNPVLAARLVMEQSPHVMMIGEGAENFAFARGMERVSPEIFSTSLRYEQLLAARKEGATVLDHSGAPLDEKQKMG
chain 2: TVGAVALDLDGNLAAATSTGGMTNKLPCTVGAAPLVGAGCYANNASVAVSCTGTGEVFIRALAAYDIAALMDYGGLSLAEACERVVMEKLPALGGSGGLIAIDHEGNVALPFNTEGMYRAWGYAGDTPTTGIYREKGDTVATQ
notes: EcAIII of Escherichia coli, α subunit: cut product up to the scissile bond Gly178-Thr179; residues 158-178 not visible in the structure; EcAIII of Escherichia coli, β subunit beginning at Thr179, with the substitutions of RDM1-12; source: E. coli BL21 Gold, purified (DEAE-Sepharose, SEC); copies: 2 + 2
B6: EcAIII variant RDM1-18, mature (processed into α/β subunits) (complex, Escherichia coli)
chain 1: MGKAVIAIHGGAGAISRAQMSLQQELRYIEALSAIVETGQKMLEAGESALDVVTEAVRLLEECPLFNAGIGAVFTRDETHELDACVMDGNTLKAGAVAGVSHLRNPVLAARLVMEQSPHVMMIGEGAENFAFARGMERVSPEIFSTSLRYEQLLAARKEGATVLDHSGAPLDEKQKMG
chain 2: TVGAVALDLDGNLAAATSTGGMTNKLPGVVGPWPLVGAGCYANNASVAVSCTGTGEVFIRALAAYDIAALMDYGGLSLAEACERVVMEKLPALGGSGGLIAIDHEGNVALPFNTEGMYRAWGYAGDTPTTGIYREKGDTVATQ
notes: EcAIII of Escherichia coli, α subunit: cut product up to the scissile bond Gly178-Thr179; residues 158-178 not visible in the structure; source: E. coli BL21 Gold, purified (DEAE-Sepharose, SEC); copies: 2 + 2
B7: EcAIII variant RDM1-29, mature (processed into α/β subunits) (complex, Escherichia coli)
chain 1: MGKAVIAIHGGAGAISRAQMSLQQELRYIEALSAIVETGQKMLEAGESALDVVTEAVRLLEECPLFNAGIGAVFTRDETHELDACVMDGNTLKAGAVAGVSHLRNPVLAARLVMEQSPHVMMIGEGAENFAFARGMERVSPEIFSTSLRYEQLLAARKEGATVLDHSGAPLDEKQKMG
chain 2: TVGAVALDLDGNLAAATSTGGMTNKLPCSVGLVPLVGAGCYANNASVAVSCTGTGEVFIRALAAYDIAALMDYGGLSLAEACERVVMEKLPALGGSGGLIAIDHEGNVALPFNTEGMYRAWGYAGDTPTTGIYREKGDTVATQ
notes: EcAIII of Escherichia coli, α subunit: cut product up to the scissile bond Gly178-Thr179; residues 158-178 not visible in the structure; EcAIII of Escherichia coli, β subunit beginning at Thr179, with the substitutions of RDM1-29; source: E. coli BL21 Gold, purified (DEAE-Sepharose, SEC); copies: 2 + 2
B8: EcAIII variant RDM1-24, mature (processed into α/β subunits) (complex, Escherichia coli)
chain 1: MGKAVIAIHGGAGAISRAQMSLQQELRYIEALSAIVETGQKMLEAGESALDVVTEAVRLLEECPLFNAGIGAVFTRDETHELDACVMDGNTLKAGAVAGVSHLRNPVLAARLVMEQSPHVMMIGEGAENFAFARGMERVSPEIFSTSLRYEQLLAARKEGATVLDHSGAPLDEKQKMG
chain 2: TVGAVALDLDGNLAAATSTGGMTNKLPGAVGSTPLVGAGCYANNASVAVSCTGTGEVFIRALAAYDIAALMDYGGLSLAEACERVVMEKLPALGGSGGLIAIDHEGNVALPFNTEGMYRAWGYAGDTPTTGIYREKGDTVATQ
notes: EcAIII of Escherichia coli, α subunit: cut product up to the scissile bond Gly178-Thr179; residues 158-178 not visible in the structure; EcAIII of Escherichia coli, β subunit beginning at Thr179, with the substitutions of RDM1-24; source: E. coli BL21 Gold, purified (DEAE-Sepharose, SEC); copies: 2 + 2
B9: EcAIII variant RDM1-37, mature (processed into α/β subunits) (complex, Escherichia coli)
chain 1: MGKAVIAIHGGAGAISRAQMSLQQELRYIEALSAIVETGQKMLEAGESALDVVTEAVRLLEECPLFNAGIGAVFTRDETHELDACVMDGNTLKAGAVAGVSHLRNPVLAARLVMEQSPHVMMIGEGAENFAFARGMERVSPEIFSTSLRYEQLLAARKEGATVLDHSGAPLDEKQKMG
chain 2: TVGAVALDLDGNLAAATSTGGMTNKLPSTVGSSPLVGAGCYANNASVAVSCTGTGEVFIRALAAYDIAALMDYGGLSLAEACERVVMEKLPALGGSGGLIAIDHEGNVALPFNTEGMYRAWGYAGDTPTTGIYREKGDTVATQ
notes: EcAIII of Escherichia coli, α subunit: cut product up to the scissile bond Gly178-Thr179; residues 158-178 not visible in the structure; EcAIII of Escherichia coli, β subunit beginning at Thr179, with the substitutions of RDM1-37 (Ser211 kept); source: E. coli BL21 Gold, purified (DEAE-Sepharose, SEC); copies: 2 + 2

molecular target: T1, EcAIII α subunit (∼20 kDa); experiment: crystal structure; hanging-drop vapor diffusion at 20°C; 20–30% PEG 4000 or PEG 6000, 0.2 M MgCl2, 100 mM Tris–HCl pH 8.5; protein 10–15 mg/ml; space group P212121; details: both partners purified

Binding result, binds:
B1

Molecular target: the molecule itself
Experiment: as above
Details: not given

Binding result, binds:
B2, B3, B4, B5, B6, B7, B8, B9

From publication PMC9248843, “Structural and biophysical studies of new L-asparaginase variants: lessons from random mutagenesis of the prototypic Escherichia coli Ntn-amidohydrolase” (Acta Crystallographica. Section D, Structural Biology, 2022)
